Like-named read-outs stand apart in the source and are kept apart here.

Experiment in all cases: SPR, scFv captured via anti-V5, RBD as analyte
Assay [1] deals with T1, SARS-CoV-2 Receptor Binding Domain (RBD) protein (SARS-CoV-2, UniProt P0DTC2 319-541).
The target in assay [2] is MERS Receptor Binding Domain (RBD) protein (MERS coronavirus, UniProt K9N5Q8 367-606).
Assay [3] deals with SARS-CoV-1 Receptor Binding Domain (RBD) protein (SARS-CoV-1, UniProt P59594 306-527).
Assay [4] concerns the target T1, SARS-CoV-2 Receptor Binding Domain …. This is another data set of the same source.

B1: COVID19_P07_A09 (scFv, V domains shown)
VH: EVQLVESGGGLVQPGGSLRLSCAASGFTFSSYGVHWVRQAPGKGLEWVAVISHDGKKKYYADSVKGRFTISRDNSKNTLYLQMNSLRAEDTAVYYCVTNVDNSRDYFPHYFHDMDVWGQGTLVTVSS
VL: not shown
B1: the Kd in assay [1] was 1.5 nM; in assay [4], < 50 nM. The molecule further registered a koff in assay [1] of 5.7e-05 s⁻¹. This molecule came in with a kon in assay [1] of 39100 M⁻¹ s⁻¹. Further, the binding result in assay [2] and in assay [3] was “no binding (tested: up to 300 nM)” in each case.

B2: COVID19_P08_D09 (scFv, V domains shown)
VH: EVQLVESGGGLVQPGGSLRLSCAASGFTFSTYAMHWVRQAPGKGLEWVAVISYDGNYQYYADSVKGRFTISRDNSKNTLYLQMNSLRAEDTAVYYCVTNLDNSRDYFPHYFHDMDVWGQGTLVTVSS
VL: not shown
As for B2, in assay [1], the Kd came out at 1.5 nM, the koff turned out to be 5.7e-05 s⁻¹ and the kon worked out at 38000 M⁻¹ s⁻¹. Besides, the binding result in assay [2] is on record as “no binding (tested: up to 300 nM)”. Besides, in assay [3], the binding result is “no binding (tested: up to 300 nM)”. Also, in assay [4], the Kd is < 50 nM.

B3: COVID19_P07_D09 (scFv, V domains shown)
VH: EVQLVESGGGLVQPGGSLRLSCAASGFSFSRYGMHWVRQAPGKGLEWVSGISADGGTAYYADSVKGRFTISRDNSKNTLYLQMNSLRAEDTAVYYCVTNMDNSRDYFPHYFHDMDVWGQGTLVTVSS
VL: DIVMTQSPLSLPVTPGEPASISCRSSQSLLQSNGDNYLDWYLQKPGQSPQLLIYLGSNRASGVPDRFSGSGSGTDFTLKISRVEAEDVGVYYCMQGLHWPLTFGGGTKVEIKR
With B3, the Kd in assay [1] is 1.8 nM; in assay [4] it was < 50 nM. The koff in assay [1] was determined as 5.7e-05 s⁻¹. Further, in assay [1], the kon turned out to be 32500 M⁻¹ s⁻¹. Moreover, the binding result in assay [2] and in assay [3] was “no binding (tested: up to 300 nM)” each time.

B4: COVID19_P08_B12 (scFv, V domains shown)
VH: EVQLVESGGGLVQPGGSLRLSCAASGFSFRSYGMHWVRQAPGKGLEWVAVISSDGRNKFYADSVKGRFTISRDNSKNTLYLQMNSLRAEDTAVYYCVTNFDNSRDYFPHYFHDMDVWGQGTLVTVSS
VL: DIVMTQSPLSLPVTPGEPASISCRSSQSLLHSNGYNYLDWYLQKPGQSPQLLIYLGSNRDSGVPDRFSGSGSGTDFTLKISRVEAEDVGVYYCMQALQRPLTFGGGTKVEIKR
As for B4, in assay [1], the Kd was 3.5 nM, the koff turned out to be 5.7e-05 s⁻¹ and the kon amounted to 16000 M⁻¹ s⁻¹. Besides, in assay [2], the binding result was “no binding (tested: up to 300 nM)”. The binding result in assay [3] is listed as “no binding (tested: up to 300 nM)”. For the same molecule, in assay [4], the Kd is < 50 nM.

B5: COVID19_P20_B06 (scFv, V domains shown)
VH: EVQLVESGGGLVQPGGSLRLSCAASGFTFHDYAMHWVRQAPGKGLEWVAVTSYDGNTKYYADSVKGRFTISRDNSKNTLYLQMNSLRAEDTAVYYCVTNLDNSRDYFPHYFHDMDVWGQGTLVTVSS
VL: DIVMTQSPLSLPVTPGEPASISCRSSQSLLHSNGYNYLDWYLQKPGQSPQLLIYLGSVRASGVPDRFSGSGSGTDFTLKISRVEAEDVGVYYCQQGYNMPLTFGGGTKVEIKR
As to B5, in assay [1], the Kd came out at 5.1 nM, the off-rate constant (koff) turned out to be 0.000439 s⁻¹ and the kon is 86000 M⁻¹ s⁻¹. Besides, the binding result in assay [2] is “no binding (tested: up to 300 nM)”. In addition, the binding result in assay [3] is reported as “no binding (tested: up to 300 nM)”. In assay [4], the Kd was < 50 nM.

B6: COVID19_P07_H01 (scFv, V domains shown)
VH: EVQLVESGGGLVQPGGSLRLSCAASGFTFRSYAMHWVRQAPGKGLEWVAVISSDGRNKFYADSVKGRFTISRDNSKNTLYLQMNSLRAEDTAVYYCVTNMDNSRDYFPHYFHDMDVWGQGTLVTVSS
VL: DIVMTQSPLSLPVTPGEPASISCRSSQSLLHSNGNNYMDWYLQKPGQSPQLLIYLASQRASGVPDRFSGSGSGTDFTLKISRVEAEDVGVYYCMQALQRPLTFGGGTKVEIKR
With B6, the Kd in assay [1] was 2.9 nM; in assay [4], < 50 nM. In assay [1], the koff is 5.7e-05 s⁻¹. Further, the kon in assay [1] stood at 19900 M⁻¹ s⁻¹. Moreover, the binding result in assay [2] and in assay [3] was “no binding (tested: up to 300 nM)” throughout.

B7: COVID19_P07_G02 (scFv, V domains shown)
VH: EVQLVESGGGLVQPGGSLRLSCAASGFRFNTYAMHWVRQAPGKGLEWVAVISSSGRNKFYADSVKGRFTISRDNSKNTLYLQMNSLRAEDTAVYYCVTNMDNSRDYFPHYFHDMDVWGQGTLVTVSS
VL: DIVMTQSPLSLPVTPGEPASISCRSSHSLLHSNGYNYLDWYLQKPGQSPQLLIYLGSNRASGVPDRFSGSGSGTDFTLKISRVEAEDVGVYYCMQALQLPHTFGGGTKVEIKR
B7: in assay [1], the Kd stood at 4.8 nM, the off-rate (koff) amounted to 5.7e-05 s⁻¹ and the kon was 11900 M⁻¹ s⁻¹. For the same molecule, the binding result in assay [2] is on record as “no binding (tested: up to 300 nM)”. Further, the binding result in assay [3] is listed as “no binding (tested: up to 300 nM)”. Besides, the Kd in assay [4] was < 50 nM.

B8: COVID19_P20_C11 (scFv, V domains shown)
VH: EVQLVESGGGLVQPGGSLRLSCAASGFTFSSYSMNWVRQAPGKGLEWVSGISGSGDRTYYADSVKGRFTISRDNSKNTLYLQMNSLRAEDTAVYYCSMQRDNSRDYFPHYFHDMDVWGQGTLVTVSS
VL: DIVMTQSPLSLPVTPGEPASISCRSSQSLLYSDGDTYLDWYLQKPGQSPQLLIYLGSIRAPGVPDRFSGSGSGTDFTLKISRVEAEDVGVYYCMQSVQTPWTFGGGTKVEIKR
For the molecule B8, the dissociation constant Kd in assay [1] is 2.94 nM; in assay [4], < 50 nM. Moreover, in assay [1], the koff stood at 0.000607 s⁻¹. The kon in assay [1] turned out to be 207000 M⁻¹ s⁻¹. Also, the binding result in assay [2] and in assay [3] was “no binding (tested: up to 300 nM)” throughout.

B9: COVID19_P19_B04 (scFv, V domains shown)
VH: EVQLVESGGGLVQPGGSLRLSCAASGITFNNYAMTWVRQAPGKGLEWVSGISGSGGSTYYADSVKGRFTISRDNSRNTLYLQMNSLRAEDTAVYYCVTQRDNPVDYFPHYFHDMDVWGQGTLVTVSS
VL: DIVMTQSPLSLPVTPGEPASISCRSSQSLLYSDGDTYLDWYLQKPGQSPQLLIYLGSIRAPGVPDRFSGSGSGTDFTLKISRVEAEDVGVYYCMQALQVPWTFGGGTKVEIKR
In assay [1], B9 registered a Kd of 22 nM, a koff of 0.00795 s⁻¹ and a kon of 361000 M⁻¹ s⁻¹. Besides, in assay [2], the binding result is recorded as “no binding (tested: up to 300 nM)”. The binding result in assay [3] was “no binding (tested: up to 300 nM)”. For the same molecule, in assay [4], the Kd was < 50 nM.

B10: COVID19_P19_H07 (scFv, V domains shown)
VH: EVQLVESGGGLVQPGGSLRLSCAASGFTFGTSAVSWVRQAPGKGLEWVSAISGSGGSTYYADSVKGRFTISRDNSKNTLYLQMNSLRAEDTAVYYCVTQRDNSRDYFPHYFHDMDVWGQGTLVTVSS
VL: DIVMTQSPLSLPVTPGEPASISCRSSQSLLYSDGDTYLDWYLQKPGQSPQLLIYLGSIRAPGVPDRFSGSGSGTDFTLKISRVEAEDVGVYYCMQGLETPWTFGGGTKVEIKR
With B10, in assay [1], the Kd was 37 nM, the koff turned out to be 0.00786 s⁻¹ and the on-rate (kon) is 212000 M⁻¹ s⁻¹. For the same molecule, in assay [2], the binding result is “no binding (tested: up to 300 nM)”. In addition, the binding result in assay [3] is recorded as “no binding (tested: up to 300 nM)”. Besides, in assay [4], the Kd is < 50 nM.

B11: COVID19_P19_B08 (scFv, V domains shown)
VH: EVQLVESGGGLVQPGGSLRLSCAASGFTFSDHYMDWVRQAPGKGLEWVAAIGASGESTYYADSVKGRFTISRDNSKNTLYLQMNSLRAEDTAVYYCVTQRDNSRDYFPLWFHDMDVWGQGTLVTVSS
VL: DIVMTQSPLSLPVTPGEPASISCRSSQSLLYSDGDTYLDWYLQKPGQSPQLLIYLGSIRAPGVPDRFSGSGSGTDFTLKISRVEAEDVGVYYCMQSIQTPWTFGGGTKVEIKR
B11: in assay [1], the Kd was determined as 32.7 nM, the koff turned out to be 0.00685 s⁻¹ and the kon is 209000 M⁻¹ s⁻¹. In addition, the binding result in assay [2] is given as “no binding (tested: up to 300 nM)”. For the same molecule, the binding result in assay [3] is listed as “no binding (tested: up to 300 nM)”. The Kd in assay [4] was < 50 nM.

B12: COVID19_P08_C12 (scFv, V domains shown)
VH: EVQLVESGGGLVQPGGSLRLSCAASGFTFNNYALHWVRQAPGKGLEWVSGVSWNGSRTHYADSVKGRFTISRDNSKNTLYLQMNSLRAEDTAVYYCVTNLDNSRDYFPHYFHDMDVWGQGTLVTVSS
VL: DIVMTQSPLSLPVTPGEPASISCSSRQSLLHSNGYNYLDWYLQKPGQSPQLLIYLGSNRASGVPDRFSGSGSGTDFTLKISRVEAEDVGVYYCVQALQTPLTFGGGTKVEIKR
For B12, in assay [1], binding was characterised by a dissociation constant (Kd) of 1.1 nM, the koff came to 5.7e-05 s⁻¹ and the kon is 53000 M⁻¹ s⁻¹. In assay [2], the binding result is on record as “no binding (tested: up to 300 nM)”. In addition, the binding result in assay [3] is reported as “no binding (tested: up to 300 nM)”. For the same molecule, the Kd in assay [4] was < 50 nM.

B13: COVID19_P08_G07 (scFv, V domains shown)
VH: EVQLVESGGGLVQPGGSLRLSCAASGFTFSTYGMHWVRQAPGKGLEWVSTISGNGVSTSYADSVKGRFTISRDNSKNTLYLQMNSLRAEDTAVYYCVTNMDNSRDYFPHYFHDMDVWGQGTLVTVSS
VL: DIVMTQSPLSLPVTPGEPASISCRSSQSLVYSDGYTYLNWYLQKPGQSPQLLIYQVSNRASGVPDRFSGSGSGTDFTLKISRVEAEDVGVYYCMQALQTPALTFGGGTKVEIKR
With B13, in assay [1], the Kd amounted to 10.6 nM, the koff amounted to 0.00072 s⁻¹ and the kon came to 68000 M⁻¹ s⁻¹. Also, the binding result in assay [2] is on record as “no binding (tested: up to 300 nM)”. For the same molecule, the binding result in assay [3] is “no binding (tested: up to 300 nM)”. Moreover, in assay [4], the Kd is < 50 nM.

B14: COVID19_P07_F02 (scFv, V domains shown)
VH: EVQLVESGGGLVQPGGSLRLSCAASGFAFSNYGMHWIRQAPGKGLEWVSGIDGSGGTAHYADSVKGRFTISRDNSKNTLYLQMNSLRAEDTAVYYCVTNMDNSRDYFPHYFHDMDVWGQGTLVTVSS
VL: not shown
For B14, in assay [1], binding was put at a Kd of 10.1 nM, the koff amounted to 0.00018 s⁻¹ and the kon came to 17800 M⁻¹ s⁻¹. Moreover, the binding result in assay [2] is recorded as “no binding (tested: up to 300 nM)”. In addition, the binding result in assay [3] is “no binding (tested: up to 300 nM)”. The Kd in assay [4] is < 50 nM.

B15: COVID19_P08_C08 (scFv, V domains shown)
VH: EVQLVESGGGLVQPGGSLRLSCAASGFTFRNYAMHWVRQAPGKGLEWVSAVSSSGGSPYYADSVKGRFTISRDNSKNTLYLQMNSLRAEDTAVYYCVTNMDNSRDYFPHYFHDMDVWGQGTLVTVSS
VL: DIVMTQSPLSLPVTPGEPASISCRSSQSLVHSDGDNYLNWYLQKPGQSPQLLIYSGSYRASGVPDRFSGSGSGTDFTLKISRVEAEDVGVYYCMQGTHWPLTFGGGTKVEIKR
In the case of B15, the values for the Kd in assay [1] and in assay [4] were 1.8 nM and < 50 nM, respectively. Further, the koff in assay [1] was 5.7e-05 s⁻¹. The same molecule registered a kon in assay [1] of 32000 M⁻¹ s⁻¹. The binding result in assay [2] and in assay [3] was “no binding (tested: up to 300 nM)” throughout.

The record behind these values is patent US11053304 (CENTIVAX, dated 2021).
